# Data taken from paper PMC8041823, “Structural comparison of Acinetobacter baumannii β-ketoacyl-acyl carrier protein reductases in fatty acid and aryl polyene biosynthesis” (Scientific Reports, 2021).
# B1: holo ACP1 (acyl carrier protein 1 of the A. baumannii aryl polyene biosynthesis gene cluster) (natural protein)
# chain: MSNLADELKQMIIDVLALEDITIADIDTEAPLFGEGLGLDSIDALELGLALKKRYNIHLNAESDETKQHFKSIQSLVALVEAQQKS
# modifications: holo form (phosphopantetheine arm; made by co-expression with holo-ACP synthase AbAcpS); residue not stated
# Target: T1, Acinetobacter baumannii ApeQ (β-ketoacyl-ACP reductase of the aryl polyene biosynthesis gene cluster) (Acinetobacter baumannii (clinical CRAB …))
# T1 construct: ApeQ of A. baumannii, amplified from genomic DNA of the clinical carbapenem-resistant strain C1 with primers designed on the A. baumannii ACICU genome; NCBI ACC55845.1; Cloned NdeI/XhoI into pET28a; His-tag removed with thrombin; Residues of the thrombin site may be left at the N-terminus; also called AbApeQ; source: E. coli BL21 (DE3), purified (Chelating Sepharose, thrombin, Q-Sepharose anion …)
# Assay: ITC; 2 mM holo ACP1 titrated into 0.1 mM reductase; 20 mM Tris pH 8, 100 mM NaCl, 2 mM NADPH; 25 °C; MicroCal 200
# Conditions: both partners purified
binder,measurement,value
B1,Kd,~80 µM
same,dH,3.05 kcal/mol
same,stoichiometry N,1.11
